Measurements as given in paper PMC11417369, “DNA sequence and chromatin differentiate sequence-specific transcription factor binding in the human malaria parasite Plasmodium falciparum”.

T1: PF3D7_0420300 D1 (Plasmodium falciparum, UniProt Q8I1N6 1956-2015)
T1 sequence: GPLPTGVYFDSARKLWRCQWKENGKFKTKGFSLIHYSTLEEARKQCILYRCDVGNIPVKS

T2: AP2-LT D1 (Plasmodium falciparum, UniProt Q8IAM1 2520-2577)
T2 sequence: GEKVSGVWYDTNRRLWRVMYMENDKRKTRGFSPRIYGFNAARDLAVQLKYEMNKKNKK


Key:
PF3D7_0420300 D1 = biological target: T1, PF3D7_0420300 D1; experiment: gcPBM; about 25 ug protein; PBS, 1% milk, 0.2 mg/ml BSA, salmon testes DNA, 0.03% Triton X-100; conditions: tags: N-terminal GST (pGEX-4T-1), kept; label: surface-attached array probe
AP2-LT D1 = biological target: T2, AP2-LT D1; experiment: as above; conditions: tags: N-terminal GST (pGEX-4T-1), kept; label: surface-attached array probe

| Binder | binding signal (PF3D7_0420300 D1) | binding signal (AP2-LT D1) |
| --- | --- | --- |
| CACACA_negctrl_site196 (dsDNA) DNA 1: TTTTTAAATATATAATAGAATTGATTGTATTATATA DNA 2: TATATAATACAATCAATTCTATTATATATTTAAAAA | 8.88 ln median PBM intensity, better of two orientations | 8.6 ln median PBM intensity, better of two orientations |
| CACACA_negctrl_site1268 (dsDNA) DNA 1: ATATTTTTATGATGTATCCAAGAAATGGAACTATAT DNA 2: ATATAGTTCCATTTCTTGGATACATCATAAAAATAT | – | 8.85 ln median PBM intensity, better of two orientations |
| CACACA_negctrl_site917 (dsDNA) DNA 1: ATTTCTATAAAAATAATCTACATTTTTTTTTTTTTT DNA 2: AAAAAAAAAAAAAATGTAGATTATTTTTATAGAAAT | 8.83 ln median PBM intensity, better of two orientations | 8.54 ln median PBM intensity, better of two orientations |
| CACACA_negctrl_site1662 (dsDNA) DNA 1: TTATTCAGAAAAAAAAAAAAAAAAAAAAAAAAAAAA DNA 2: TTTTTTTTTTTTTTTTTTTTTTTTTTTTCTGAATAA | 8.5 ln median PBM intensity, better of two orientations | 8.18 ln median PBM intensity, better of two orientations |
| CACACA_negctrl_site1634 (dsDNA) DNA 1: TTGGTAAATATATTTTGAATATAAGAAATATAGACG DNA 2: CGTCTATATTTCTTATATTCAAAATATATTTACCAA | – | 8.87 ln median PBM intensity, better of two orientations |
| CACACA_negctrl_site1820 (dsDNA) DNA 1: AGAATTGTTGTTAAAGAATTCTTTTTTATCCTTCCC DNA 2: GGGAAGGATAAAAAAGAATTCTTTAACAACAATTCT | – | 8.88 ln median PBM intensity, better of two orientations |
| CACACA_negctrl_site94 (dsDNA) DNA 1: TTTTTTTTTTTTTTTTTTTTTTTCTACCTATTTATT DNA 2: AATAAATAGGTAGAAAAAAAAAAAAAAAAAAAAAAA | – | 8.86 ln median PBM intensity, better of two orientations |
| CACACA_negctrl_site377 (dsDNA) DNA 1: GTATAACAACTGATAAAAGAAAAAAAATTTATTATT DNA 2: AATAATAAATTTTTTTTCTTTTATCAGTTGTTATAC | – | 8.85 ln median PBM intensity, better of two orientations |
| CACACA_site7149 (dsDNA) DNA 1: CCCCCCCACGAACACACACACATACATACCACATAT DNA 2: ATATGTGGTATGTATGTGTGTGTGTTCGTGGGGGGG | 10.7 ln median PBM intensity, better of two orientations | 10.7 ln median PBM intensity, better of two orientations |
| CACACA_negctrl_site1516 (dsDNA) DNA 1: TAACCAAAAAAAAATATTTAAAATAAATATATATAT DNA 2: ATATATATATTTATTTTAAATATTTTTTTTTGGTTA | – | 8.88 ln median PBM intensity, better of two orientations |
| CACACA_negctrl_site149 (dsDNA) DNA 1: TCTTATTCAAACGTAAAACGAAGAAGAAAAAAAAAA DNA 2: TTTTTTTTTTCTTCTTCGTTTTACGTTTGAATAAGA | 8.92 ln median PBM intensity, better of two orientations | 8.7 ln median PBM intensity, better of two orientations |
| CACACA_negctrl_site1631 (dsDNA) DNA 1: TTTTAATTAAATACAAAAAAAAAAAAAAAAAAAAAA DNA 2: TTTTTTTTTTTTTTTTTTTTTTGTATTTAATTAAAA | 8.08 ln median PBM intensity, better of two orientations | 8.41 ln median PBM intensity, better of two orientations |
| CACACA_negctrl_site1242 (dsDNA) DNA 1: TATTATTGTCTTTCAAAAAAAAAAAAAAAAAAAAAA DNA 2: TTTTTTTTTTTTTTTTTTTTTTGAAAGACAATAATA | 8.46 ln median PBM intensity, better of two orientations | 8.23 ln median PBM intensity, better of two orientations |
| CACACA_negctrl_site1546 (dsDNA) DNA 1: TCATATATTCAAAAATTTAAAGTTAATAAAACTTGA DNA 2: TCAAGTTTTATTAACTTTAAATTTTTGAATATATGA | 8.61 ln median PBM intensity, better of two orientations | 8.35 ln median PBM intensity, better of two orientations |
| CACACA_negctrl_site1417 (dsDNA) DNA 1: AAAAATATTATGATGTTTATTAGAAAGGAAAAAACT DNA 2: AGTTTTTTCCTTTCTAATAAACATCATAATATTTTT | – | 8.85 ln median PBM intensity, better of two orientations |
| CACACA_negctrl_site1356 (dsDNA) DNA 1: TGTTTAACACATGTTTCAAACAAAAAAAAAAAGACA DNA 2: TGTCTTTTTTTTTTTGTTTGAAACATGTGTTAAACA | – | 8.88 ln median PBM intensity, better of two orientations |
| CACACA_negctrl_site1067 (dsDNA) DNA 1: ATTATTTTATGAGACATAAAAAAAAAAAAAAAAAAA DNA 2: TTTTTTTTTTTTTTTTTTTATGTCTCATAAAATAAT | 8.39 ln median PBM intensity, better of two orientations | 8.39 ln median PBM intensity, better of two orientations |
| CACACA_negctrl_site97 (dsDNA) DNA 1: AATAAAGGAAATAAATAATTTATTTTGTAAAATATG DNA 2: CATATTTTACAAAATAAATTATTTATTTCCTTTATT | – | 8.84 ln median PBM intensity, better of two orientations |
| CACACA_negctrl_site1450 (dsDNA) DNA 1: ATATATTTTTAAAAAAATTAAGAATTTTACATCTCC DNA 2: GGAGATGTAAAATTCTTAATTTTTTTAAAAATATAT | 8.78 ln median PBM intensity, better of two orientations | 8.56 ln median PBM intensity, better of two orientations |

| Binder | binding signal (PF3D7_0420300 D1) | binding signal (AP2-LT D1) |
| --- | --- | --- |
| CACACA_site367 (dsDNA) DNA 1: CACCCACCCAGACACACACACACACCCCCACCCATA DNA 2: TATGGGTGGGGGTGTGTGTGTGTGTCTGGGTGGGTG | 10.8 ln median PBM intensity, better of two orientations | 11 ln median PBM intensity, better of two orientations |
| CACACA_negctrl_site1330 (dsDNA) DNA 1: TAATAAATTCAAAACATAAAAAGGAAAAAAAAAAAA DNA 2: TTTTTTTTTTTTCCTTTTTATGTTTTGAATTTATTA | – | 8.86 ln median PBM intensity, better of two orientations |
| CACACA_site3850 (dsDNA) DNA 1: TAAAATAAAACAAACACACACACACCCCCACAAAAA DNA 2: TTTTTGTGGGGGTGTGTGTGTGTTTGTTTTATTTTA | 10.7 ln median PBM intensity, better of two orientations | 10.7 ln median PBM intensity, better of two orientations |
| CACACA_negctrl_site687 (dsDNA) DNA 1: GTTAAACATCTTCTGTGATATGTTAGAATATTATTT DNA 2: AAATAATATTCTAACATATCACAGAAGATGTTTAAC | – | 8.83 ln median PBM intensity, better of two orientations |
| CACACA_negctrl_site43 (dsDNA) DNA 1: TTCTTAATTCATACCATCAAAACATTTATTCATATC DNA 2: GATATGAATAAATGTTTTGATGGTATGAATTAAGAA | – | 8.88 ln median PBM intensity, better of two orientations |
| CACACA_negctrl_site593 (dsDNA) DNA 1: TAATTTTTGTAAACAGTCATGGATTCAAAAAAAAAA DNA 2: TTTTTTTTTTGAATCCATGACTGTTTACAAAAATTA | 8.81 ln median PBM intensity, better of two orientations | 8.58 ln median PBM intensity, better of two orientations |
| CACACA_negctrl_site1463 (dsDNA) DNA 1: TGTTTCTGCTCTGGACATTTTTAAAAAAGGGAAAGC DNA 2: GCTTTCCCTTTTTTAAAAATGTCCAGAGCAGAAACA | 8.94 ln median PBM intensity, better of two orientations | 8.66 ln median PBM intensity, better of two orientations |
| CACACA_negctrl_site1031 (dsDNA) DNA 1: ATTATTTGAACAACAAAAAAAAAGAAAAGAAAAGAA DNA 2: TTCTTTTCTTTTCTTTTTTTTTGTTGTTCAAATAAT | – | 8.83 ln median PBM intensity, better of two orientations |
| CACACA_negctrl_site1518 (dsDNA) DNA 1: AAGGGAAAATAATAAAAGAAAAAGAAAAAAAAAAAA DNA 2: TTTTTTTTTTTTCTTTTTCTTTTATTATTTTCCCTT | – | 8.87 ln median PBM intensity, better of two orientations |
| CACACA_negctrl_site1708 (dsDNA) DNA 1: AAAACTTTTTTAACAGAAAAATAGGGATACAATATA DNA 2: TATATTGTATCCCTATTTTTCTGTTAAAAAAGTTTT | – | 8.86 ln median PBM intensity, better of two orientations |
| CACACA_negctrl_site737 (dsDNA) DNA 1: TTTTTAATTCAAAAAATAATATATTATATTTCAAAT DNA 2: ATTTGAAATATAATATATTATTTTTTGAATTAAAAA | 8.79 ln median PBM intensity, better of two orientations | 8.36 ln median PBM intensity, better of two orientations |
| CACACA_negctrl_site699 (dsDNA) DNA 1: TTTTATTTCAATCCACAAGGGATAAAATAAAGTTTT DNA 2: AAAACTTTATTTTATCCCTTGTGGATTGAAATAAAA | 8.71 ln median PBM intensity, better of two orientations | 8.46 ln median PBM intensity, better of two orientations |
| CACACA_negctrl_site847 (dsDNA) DNA 1: TTTTAAAATAAAAAAATAAAAAAAGGGGAAAAAAAA DNA 2: TTTTTTTTCCCCTTTTTTTATTTTTTTATTTTAAAA | – | 8.83 ln median PBM intensity, better of two orientations |
| CACACA_negctrl_site949 (dsDNA) DNA 1: TATATATGGGTACTAATTCCTTTAATTTCTTTAATT DNA 2: AATTAAAGAAATTAAAGGAATTAGTACCCATATATA | – | 8.85 ln median PBM intensity, better of two orientations |
| CACACA_negctrl_site1412 (dsDNA) DNA 1: TATATTTGGTTTCATTCATTTTTATAGAAATCTCAA DNA 2: TTGAGATTTCTATAAAAATGAATGAAACCAAATATA | – | 8.84 ln median PBM intensity, better of two orientations |
| CACACA_site2303 (dsDNA) DNA 1: CATATTCCCCCCCACACACACACACCCATACATACC DNA 2: GGTATGTATGGGTGTGTGTGTGTGGGGGGGAATATG | 11 ln median PBM intensity, better of two orientations | 10.8 ln median PBM intensity, better of two orientations |
| CACACA_negctrl_site1460 (dsDNA) DNA 1: TATTTTACATAAAAGAAAAAAAAAAAAAAAAAAAAA DNA 2: TTTTTTTTTTTTTTTTTTTTTCTTTTATGTAAAATA | 8.27 ln median PBM intensity, better of two orientations | 8.54 ln median PBM intensity, better of two orientations |
| CACACA_negctrl_site1225 (dsDNA) DNA 1: ATTTTTTTTTTTTTTTTTTATATGCTCTCCATGAGA DNA 2: TCTCATGGAGAGCATATAAAAAAAAAAAAAAAAAAT | 8.86 ln median PBM intensity, better of two orientations | 8.79 ln median PBM intensity, better of two orientations |
